{"source": "paper PMC5650471", "molecular_target": "wild-type human ADORA2A adenosine A2A receptor (construct terminated at residue 316, N154Q, C-terminal 8x His and Protein C tags) (human) (UniProt P29274)", "sequence (P29274 1-316 N154Q)": "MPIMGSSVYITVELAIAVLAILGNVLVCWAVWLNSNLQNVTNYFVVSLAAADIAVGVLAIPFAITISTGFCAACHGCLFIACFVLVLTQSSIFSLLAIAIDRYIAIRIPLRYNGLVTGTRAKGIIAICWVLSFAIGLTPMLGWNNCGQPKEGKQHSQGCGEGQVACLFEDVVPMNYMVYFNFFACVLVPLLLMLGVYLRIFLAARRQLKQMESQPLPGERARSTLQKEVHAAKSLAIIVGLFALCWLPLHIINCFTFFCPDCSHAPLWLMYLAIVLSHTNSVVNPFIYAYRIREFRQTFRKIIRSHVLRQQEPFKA"}
{"substance": "Gs heterotrimer (complex)", "values": [{"measurement": "[35S]GTPγS binding to perdeuterated purified A2AR reconstituted with purified Gs heterotrimer in phospholipid vesicles; reduction of basal activity by inverse agonist ZM241385", "value": 50, "unit": "%"}, {"measurement": "[35S]GTPγS binding to perdeuterated purified A2AR reconstituted with purified Gs heterotrimer in phospholipid vesicles; stimulation by saturating full agonist NECA", "value": 8, "unit": "fold"}]}
